Experimental data published in patent US12534501B2, “Targeting deregulated Wnt signaling in cancer using stabilized alpha-helices of BCL-9” (Dana-Farber Cancer Institute, Inc., priority 2011, dated 2026).

Experiments:
Colo320 cells = assay: Cellular uptake of FITC-labelled peptides; assay type: cell-based; details: FITC derivatives
Procedure: (§1) For fluorescence microscopy evaluation, cells were prepared using a cytocentrifuge (Thermo Shandon) and fixed as previously described (Sukhdeo, K. et al. Proc Natl Acad Sci USA 104, 7516-21 (2007); Mani, M. et al. Cancer Res 69, 7577-86 (2009)). Anti-β-catenin and rhodamine-conjugated secondary antibodies (5 μg/ml; Southern Biotechnology) were employed. Images were obtained using a BioRad Radiance 2000 laser scanning confocal microscope. Cell permeability of SAH-BCL9B and SAH-BCL9B(R359E) were determined by fluorescence microscopy of cells treated with FITC-derivatives of the above described stapled peptides and also by blotting/fluorescence scan, performed as previously described (Pitter, K. et al Methods Enzymol, 446, (2008), 387-408; Walensky, L. D. et al. Science 305, 1466-70 (2004). See results in FIG. 1E, FIG. 7.

MM1S cells = assay: Cellular uptake of FITC-labelled peptides; assay type: cell-based; details: FITC derivatives
Procedure: as §1

β-catenin = target: T1, β-catenin (Homo sapiens, UniProt P35222); assay: Anti-FITC / anti-β-catenin co-immunoprecipitation from lysates of peptide-treated cells; assay type: cell-based; details: FITC and β-catenin immunoprecipitation, in situ
T1 construct: endogenous in cells; host or cells: Colo320
T1 sequence (P35222 1-781): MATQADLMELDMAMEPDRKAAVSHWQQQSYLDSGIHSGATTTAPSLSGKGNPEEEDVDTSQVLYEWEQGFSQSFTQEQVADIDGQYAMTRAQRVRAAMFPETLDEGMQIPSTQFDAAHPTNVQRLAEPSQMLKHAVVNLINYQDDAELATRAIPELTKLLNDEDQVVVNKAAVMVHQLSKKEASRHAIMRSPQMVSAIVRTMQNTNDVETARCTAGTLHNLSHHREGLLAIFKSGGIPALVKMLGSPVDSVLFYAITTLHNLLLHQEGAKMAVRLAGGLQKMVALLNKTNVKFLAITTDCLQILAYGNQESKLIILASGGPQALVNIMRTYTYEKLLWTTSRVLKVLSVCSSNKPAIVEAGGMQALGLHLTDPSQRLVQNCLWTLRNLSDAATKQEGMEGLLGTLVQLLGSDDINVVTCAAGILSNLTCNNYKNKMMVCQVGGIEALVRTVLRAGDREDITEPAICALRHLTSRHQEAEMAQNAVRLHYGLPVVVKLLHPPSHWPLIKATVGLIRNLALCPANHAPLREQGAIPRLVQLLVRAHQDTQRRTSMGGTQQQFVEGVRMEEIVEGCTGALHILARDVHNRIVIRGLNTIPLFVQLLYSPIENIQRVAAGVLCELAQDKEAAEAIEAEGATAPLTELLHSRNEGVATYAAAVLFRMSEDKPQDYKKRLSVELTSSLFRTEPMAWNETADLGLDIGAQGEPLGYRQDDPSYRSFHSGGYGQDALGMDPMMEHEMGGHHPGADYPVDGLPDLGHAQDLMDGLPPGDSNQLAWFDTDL
Excerpt: (§2) Western blotting, performed as described (Sukhdeo, K. et al. Proc Natl Acad Sci USA 104, 7516-21 (2007)), employed the following primary antibodies: BCL9 (6109) (Mani, M. et al. Cancer Res 69, 7577-86 (2009)), BCL9 (ab37305, Abcam), B9L (AF4967, R&D Systems), β-catenin (CAT5-H10, Zymed), FITC (ab19224, Abcam), Actin-HRP (C-11, Santa Cruz), Caspase3 (#9662, Cell Signaling), IκBα (#9242, Cell signaling), PARP (#9542, Cell Signaling), E-cadherin (#3195, Cell Signaling), and Lamin B (sc-6217, Santa Cruz). Horseradish peroxidase conjugated secondary antibodies were purchased from Santa Cruz and SouthernBiotech. Co-immunoprecipitation was performed as described (Walensky, L. D. et al. Science 305, 1466-70 (2004)). Briefly, cells were lysed in 50 mM Tris, 150 mM NaCl, and 1% CHAPS buffer containing protease and phosphatase inhibitors. Lysates were precleared with Protein A/G PLUS-agarose beads (Santa Cruz Biotechnologies) for 3 hours followed by overnight incubation at 4° C. with the respective antibodies. Agarose A/G beads were then added for 4 h, pelleted, and washed as described (Walensky, L. D. et al. Science 305, 1466-70 (2004)). See results in FIG. 1D, FIG. 1H, FIG. 2A, FIG. 8.

[1] = target: T2, β-catenin/E-cadherin interaction (Homo sapiens, UniProt P35222); assay: Anti-β-catenin co-immunoprecipitation of E-cadherin from MCF7 cell lysates; assay type: cell-based; details: selectivity
T2 construct: anti-β-catenin co-immunoprecipitation of E-cadherin from MCF7 cell lysates; endogenous in cells; host or cells: MCF7
T2 sequence (P35222 2-781 limits assumed): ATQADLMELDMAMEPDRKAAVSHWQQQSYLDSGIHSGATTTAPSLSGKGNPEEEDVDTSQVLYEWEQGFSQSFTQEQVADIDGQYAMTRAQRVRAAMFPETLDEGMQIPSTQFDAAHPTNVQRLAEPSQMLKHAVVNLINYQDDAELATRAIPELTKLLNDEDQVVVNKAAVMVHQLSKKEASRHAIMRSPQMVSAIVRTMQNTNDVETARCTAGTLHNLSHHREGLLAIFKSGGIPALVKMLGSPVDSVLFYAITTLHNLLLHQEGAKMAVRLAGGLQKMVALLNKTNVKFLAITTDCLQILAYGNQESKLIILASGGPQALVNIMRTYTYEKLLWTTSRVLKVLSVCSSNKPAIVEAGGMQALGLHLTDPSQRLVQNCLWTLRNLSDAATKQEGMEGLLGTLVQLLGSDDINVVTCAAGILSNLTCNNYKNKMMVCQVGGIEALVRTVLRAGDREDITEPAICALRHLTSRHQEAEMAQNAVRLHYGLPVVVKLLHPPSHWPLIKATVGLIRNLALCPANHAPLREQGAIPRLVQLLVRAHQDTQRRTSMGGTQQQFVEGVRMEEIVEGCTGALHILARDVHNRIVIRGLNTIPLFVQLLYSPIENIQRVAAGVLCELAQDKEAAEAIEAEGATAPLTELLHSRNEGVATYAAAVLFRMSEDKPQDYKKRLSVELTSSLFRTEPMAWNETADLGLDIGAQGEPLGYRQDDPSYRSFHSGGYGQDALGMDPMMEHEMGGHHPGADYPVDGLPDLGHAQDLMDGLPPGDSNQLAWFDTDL
Excerpt: as §2

IκBα and actin = assay: Anti-FITC pulldown from MCF7 lysates (unrelated proteins); assay type: cell-based; details: MCF7 cells, selectivity
Excerpt: as §2

[2] = system: β-catenin/TCF interaction; details: Lepourcelet et al. 2004; cited from earlier work
colon cancer cells = details: Lepourcelet et al. 2004; cited from earlier work
[3] = Sukhdeo et al. 2007; cited from earlier work

Row | Substance | cellular uptake (Colo320 cells) | temperature-dependent uptake (Colo320 cells) | cellular uptake (MM1S cells) | β-catenin interaction by co-immunoprecipitation (β-catenin) | effect on β-catenin's interaction with E-cadherin [1] | co-immunoprecipitation of unrelated proteins (IκBα, actin) (IκBα and actin) | Wnt-specific transcriptional activity [2] | growth of colon cancer cells (colon cancer cells) | toxicity in treated mice [3]
1 | FITC-SAH-BCL9B(R359E): FITC derivative of SAH-BCL9B(R359E) | equivalent cellular uptake | equivalent temperature-dependent uptake | equivalent cellular uptake | – | – | – | – | – | –
2 | FITC-SAH-BCL9B: FITC derivative (via β-Ala at the amino terminus) of SAH-BCL9B | equivalent cellular uptake | equivalent temperature-dependent uptake | equivalent cellular uptake | dose-responsively co-immunoprecipitated with β-catenin | no effect | no co-immunoprecipitation of unrelated proteins | – | – | –
3 | PKF115-584 | – | – | – | – | – | – | blocked Wnt-specific transcriptional activity | reduced the growth of colon cancer cells | severe bone marrow hypoplasia, anemia, and generalized wasting
4 | SAH-BCL9B(H358D): SEQ ID NO: 6: LSQEQLEDRERSLXTLRXIQRBLF; reverse polarity point mutant of SAH-BCL9B | similar | – | – | impaired β-catenin interaction | – | – | – | – | –
